62 sequences from the supplement of paper PMC7877785 can be followed below.

± gives the uncertainty stated by the source.

The series can be described thus: self-splicing fitness, log relative to wild type (ln ratio); higher = more splicing; Tetrahymena group I intron in knt gene, E. coli kanamycin selection, DiMSum; sequences stand for … in CUCUCU…GGAGGGAAAAGUUAUCAGGCAUGCACCUGGUAGCUAGUCUUUAAACCAAUAGAUUGCAUCGGUUUAAAAGGCAAGACCGUCAAAUUGCGGGAAAGGGGUCAACAGCCGUUCAGUACCAAGUCUCAGGGGAAACUUUGAGAUGGCCUUGCAAAGGGUAUGGUAAUAAGCUGACGGACAUGGUCCUAACCACGCAGCCAAGUCCUAAGUCAACAGAUCUUCUGUUGAUAUGGAUGCAGUUCACAGACUAAAUGUCGGUCGGGGAAGAUGUAUUCUUCUCAUAAGAUAUAGUCGGACCUCUCCUUAAUGGGAGCUAGCGGAUGAAGUGAUGCAACACUGGAGCCGCUGGGAACUAAUUUGUAUGCGAAAGUAUAUUGAUUAGUUUUGGAGUACUCGUGGUCG
In a few lines: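 DiMSum derived fitness as the error-weighted combination of fold changes across replicates, kanamycin versus no kanamycin, normalised to wild type. E. coli BL21(DE3) held the library, which randomised all eight P1ex-region intron nucleotides within the knt kanamycin-resistance gene on pET-22b(+). Six replicate transformations grew overnight at 37°C or 30°C on LB agar with or without 25 μg/mL kanamycin, also containing 100 μg/mL carbenicillin, 50 μM IPTG and 0.2% rhamnose, and pooled colonies were amplicon-sequenced on an Illumina HiSeq 2500.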

For CAUGAGCAAUAUUACGAAUA, the “self-splicing fitness (ln)” value (30 °C) was -1.59 ± 0.18 and the “self-splicing fitness (ln)” value (37 °C) was -2.72 ± 0.4.
For the sequence CAUGAGCAAUAUUACGACAA, the “self-splicing fitness (ln)” value (37 °C) was -1.36 ± 0.33.
Turning to CAUGAGCAAUAUUACGACGU, the “self-splicing fitness (ln)” value by setting is: (30 °C) -4.25 ± 0.39; (37 °C) -0.969 ± 0.2.
Taken in the same sequence, the figures for CAUGAGCAAUAUUACGACUC were -3.85 ± 0.3 and -3.38 ± 0.39.
Turning to CAUGAGCAAUAUUACGAGUG, the “self-splicing fitness (ln)” value (30 °C) was -2.67 ± 0.13 and the “self-splicing fitness (ln)” value (37 °C) was -3 ± 0.21.
For the sequence CAUGAGCAAUAUUACGAGUU, under “37 °C”, the “self-splicing fitness (ln)” value is -2.6 ± 0.24.
Consider CAUGAGCAAUAUUACGAUAC, for which the “self-splicing fitness (ln)” value (30 °C) was -2.93 ± 0.35.
As for CAUGAGCAAUAUUACGAUCU, the “self-splicing fitness (ln)” value is, setting by setting: (30 °C) -2.9 ± 0.36; (37 °C) -2.37 ± 0.3.
Regarding CAUGAGCAAUAUUACGAUUA, the “self-splicing fitness (ln)” value was -3.08 ± 0.24 (30 °C) and -2.02 ± 0.21 (37 °C).
CAUGAGCAAUAUUACGCCAA: the “self-splicing fitness (ln)” value (30 °C) is -3.67 ± 0.41 and the “self-splicing fitness (ln)” value (37 °C) was -2.53 ± 0.36.
With CAUGAGCAAUAUUACGCUUA, the “self-splicing fitness (ln)” value was -3.77 ± 0.43 (30 °C) and -2.19 ± 0.25 (37 °C).
For CAUGAGCAAUAUUACGGAAG the same measures were -1.47 ± 0.077 and -0.61 ± 0.1.
For CAUGAGCAAUAUUACGGCAG the same measures were -0.481 ± 0.086 and -0.96 ± 0.14.
For CAUGAGCAAUAUUACGGGAG the same measures were -1 ± 0.095 and -1.54 ± 0.13.
For CAUGAGCAAUAUUACGUACA, the “self-splicing fitness (ln)” value reads like this: (30 °C) -3.1 ± 0.22; (37 °C) -2.17 ± 0.3.
Turning to CAUGAGCAAUAUUACGUAUA, the “self-splicing fitness (ln)” value was -3.31 ± 0.3 (30 °C) and -2.2 ± 0.21 (37 °C).
For CAUGAGCAAUAUUACGUAUU, the “self-splicing fitness (ln)” value by setting is: (30 °C) -3.86 ± 0.46; (37 °C) -0.455 ± 0.16.
CAUGAGCAAUAUUACGUCGA: under “30 °C”, the “self-splicing fitness (ln)” value is -2.57 ± 0.33.
For the sequence CAUGAGCAAUAUUACGUCUU, the “self-splicing fitness (ln)” value (30 °C) was -4.56 ± 0.34 and the “self-splicing fitness (ln)” value (37 °C) was -2.53 ± 0.25.
CAUGAGCAAUAUUACGUGUA: the “self-splicing fitness (ln)” value was -3.33 ± 0.21 (30 °C) and -2.1 ± 0.15 (37 °C).
With CAUGAGCAAUAUUACGUUCA, the “self-splicing fitness (ln)” value reads like this: (30 °C) -3.67 ± 0.26; (37 °C) -2.29 ± 0.17.
In the case of CAUGAGCAAUAUUACGUUCG, the “self-splicing fitness (ln)” value was -1.33 ± 0.13 (30 °C) and -0.161 ± 0.14 (37 °C).
For CAUGAGCAAUAUUACGUUUA, the “self-splicing fitness (ln)” value by setting is: (30 °C) -3.69 ± 0.21; (37 °C) -2.84 ± 0.2.
Turning to CAUUAGCAAUAUUACGACGC, the “self-splicing fitness (ln)” value (30 °C) was -1.73 ± 0.39.
On to CAUUAGCAAUAUUACGCAGU, for which the “self-splicing fitness (ln)” value is, setting by setting: (30 °C) -3.73 ± 0.18; (37 °C) -2.77 ± 0.22.
In the case of CAUUAGCAAUAUUACGCCAG, the “self-splicing fitness (ln)” value (30 °C) was -0.337 ± 0.094 and the “self-splicing fitness (ln)” value (37 °C) was 0.267 ± 0.12.
On to CAUUAGCAAUAUUACGCCCA, for which the “self-splicing fitness (ln)” value is -2.43 ± 0.2 (30 °C) and -1.47 ± 0.24 (37 °C).
For CAUUAGCAAUAUUACGGAAG the same measures were -0.396 ± 0.1 and -0.104 ± 0.12.
CAUUAGCAAUAUUACGGGAG: the “self-splicing fitness (ln)” value is -1.46 ± 0.12 (30 °C) and -1.09 ± 0.11 (37 °C).
For CAUUAGCAAUAUUACGUGAC the same measures were -3.18 ± 0.26 and -1.58 ± 0.33.
Regarding CAUUAGCAAUAUUACGUUCU, the “self-splicing fitness (ln)” value (30 °C) is -2.56 ± 0.15 and the “self-splicing fitness (ln)” value (37 °C) is -2.62 ± 0.16.
On to CCAAAGCAAUAUUACGACCU, for which the “self-splicing fitness (ln)” value by setting is: (30 °C) -3.31 ± 0.21; (37 °C) -3.23 ± 0.38.
In the case of CCAAAGCAAUAUUACGACUU, the “self-splicing fitness (ln)” value reads like this: (30 °C) -3.77 ± 0.16; (37 °C) -3.01 ± 0.2.
Consider CCAAAGCAAUAUUACGAGCC, for which the “self-splicing fitness (ln)” value (30 °C) is -3.2 ± 0.21 and the “self-splicing fitness (ln)” value (37 °C) is -2.07 ± 0.19.
On to CCAAAGCAAUAUUACGCCUC, for which the “self-splicing fitness (ln)” value runs as follows: (30 °C) -3.33 ± 0.29; (37 °C) -2.52 ± 0.32.
With CCAAAGCAAUAUUACGCGGU, the “self-splicing fitness (ln)” value is -4.85 ± 0.29 (30 °C) and -1.78 ± 0.21 (37 °C).
In the case of CCAAAGCAAUAUUACGCUAC, the “self-splicing fitness (ln)” value (30 °C) was -2.17 ± 0.23 and the “self-splicing fitness (ln)” value (37 °C) was -1.58 ± 0.27.
As to CCAAAGCAAUAUUACGCUAG, the “self-splicing fitness (ln)” value was -3.78 ± 0.2 (30 °C) and -2.4 ± 0.16 (37 °C).
For CCAAAGCAAUAUUACGCUCC, the “self-splicing fitness (ln)” value is -1.01 ± 0.2 (30 °C) and -1.74 ± 0.36 (37 °C).
Turning to CCAAAGCAAUAUUACGGAAA, the “self-splicing fitness (ln)” value is -1.03 ± 0.26 (30 °C) and -3 ± 0.38 (37 °C).
As to CCAAAGCAAUAUUACGGAAC, the “self-splicing fitness (ln)” value (37 °C) is -2.53 ± 0.36.
In the case of CCAAAGCAAUAUUACGGAAG, the “self-splicing fitness (ln)” value is -2 ± 0.056 (30 °C) and -1.11 ± 0.074 (37 °C).
Taken in the same sequence, the figures for CCAAAGCAAUAUUACGGCAC were -4.07 ± 0.24 and -2.89 ± 0.21.
As to CCAAAGCAAUAUUACGGCCC, the “self-splicing fitness (ln)” value (30 °C) is -3.57 ± 0.43.
As for CCAAAGCAAUAUUACGGCUG, the “self-splicing fitness (ln)” value reads like this: (30 °C) -0.987 ± 0.069; (37 °C) -0.917 ± 0.088.
On to CCAAAGCAAUAUUACGUAGG, for which the “self-splicing fitness (ln)” value is -3.85 ± 0.18 (30 °C) and -1.66 ± 0.12 (37 °C).
Take CCAAAGCAAUAUUACGUAGU: the “self-splicing fitness (ln)” value runs as follows: (30 °C) -3.67 ± 0.15; (37 °C) -3.14 ± 0.14.
For CCAAAGCAAUAUUACGUAUU, the “self-splicing fitness (ln)” value was -4.14 ± 0.13 (30 °C) and -2.71 ± 0.12 (37 °C).
For the sequence CCAAAGCAAUAUUACGUCUU, the “self-splicing fitness (ln)” value (30 °C) is -4.12 ± 0.21 and the “self-splicing fitness (ln)” value (37 °C) is -2.43 ± 0.14.
Turning to CCAAAGCAAUAUUACGUGAU, the “self-splicing fitness (ln)” value is, setting by setting: (30 °C) -3.5 ± 0.21; (37 °C) -3.14 ± 0.24.
For the sequence CCAAAGCAAUAUUACGUGGG, the “self-splicing fitness (ln)” value was -2.85 ± 0.12 (30 °C) and -2.9 ± 0.17 (37 °C).
In the case of CCACAGCAAUAUUACGAGGA, the “self-splicing fitness (ln)” value reads like this: (30 °C) -3.8 ± 0.18; (37 °C) -1.32 ± 0.12.
Taken in the same sequence, the figures for CCACAGCAAUAUUACGAGGU were -4.41 ± 0.2 and -2.81 ± 0.16.
Consider CCACAGCAAUAUUACGAUCA, for which the “self-splicing fitness (ln)” value is, setting by setting: (30 °C) -2.69 ± 0.33; (37 °C) -1.98 ± 0.28.
Regarding CCACAGCAAUAUUACGAUCU, the “self-splicing fitness (ln)” value is, setting by setting: (30 °C) -3.57 ± 0.16; (37 °C) -2.43 ± 0.16.
For CCACAGCAAUAUUACGCAAA, the “self-splicing fitness (ln)” value (30 °C) is -2.03 ± 0.22 and the “self-splicing fitness (ln)” value (37 °C) was -3.24 ± 0.32.
For CCACAGCAAUAUUACGCACC the same measures were -2.62 ± 0.28 and -1.71 ± 0.28.
Taken in the same sequence, the figures for CCACAGCAAUAUUACGCCCG were -0.882 ± 0.078 and -0.0155 ± 0.09.
Taken in the same sequence, the figures for CCACAGCAAUAUUACGCCCU were -2.75 ± 0.25 and -2.08 ± 0.23.
On to CCACAGCAAUAUUACGCCUU, for which the “self-splicing fitness (ln)” value was -3.21 ± 0.17 (30 °C) and -1.59 ± 0.14 (37 °C).
CCACAGCAAUAUUACGCGAA: the “self-splicing fitness (ln)” value was -3.53 ± 0.2 (30 °C) and -3.29 ± 0.21 (37 °C).
Consider CCACAGCAAUAUUACGCGCA, for which the “self-splicing fitness (ln)” value runs as follows: (30 °C) -3.95 ± 0.3; (37 °C) -3.06 ± 0.24.
